The target of experiment [1] is T1, Soluble CTLA-4-Ig (human, UniProt P16410 36-161, FITC-conjugated in the two-colour FACS assays; unlabelled and detected with FITC goat anti-human IgG in the concentration-dependent assay).
T1 construct: extracellular domain; Bought from R&D Systems; also called sCTLA-4-Ig; CTLA-4-Ig Fc; not shown: Fc portion of human IgG1
As to the kind of experiment: receptor binding assay, data not shown.

Experiment [2] deals with T2, Soluble CD28-Ig (human, UniProt P10747 19-152, biotin-conjugated (NHS-biotin) in the labelled-ligand FACS assays).
T2 construct: extracellular domain; Bought from R&D Systems; also called sCD28-Ig; CD28-Ig Fc; not shown: Fc portion of human IgG1
As to the kind of experiment: receptor binding assay, data not shown.

In experiment [3] the target is T1, Soluble CTLA-4-Ig. As to the kind of experiment: two-colour FACS on transfected 293 cells. As to the method:
(§1) Biotin binds the fluorescence marker Streptavidin-PE. (R-PE has an excitation maximum of 565 nanometers (nm) and an emission maximum of 578 nm. B-PE has excitation and emission maxima of 545 nm and 578 nm, respectively. FITC has excitation and emission maxima of 494 and 519, respectively.) The cells were again washed twice and resuspended in 200 μl medium with 5 μg/ml propidium iodide (PI). The cells were then analyzed using a FACSCalibur flow cytometer and CellQuest software (BDIS, San Jose, Calif.). Cell sorting was performed by flow-cytometry based cell sorting screening methods using FACS (Fluorescence-Activated Cell Sorting) Vantage SE cell sorter (BDIS) (Becton Dickinson; San Jose, Calif.). The staining concentration was determined for each labeled protein to provide a maximal Mean Fluorescence Intensity (MFI) and minimal background signal (e.g., optimum staining concentration was the concentration per 10⁶ cells).

Experiment [4] concerns the target T2, Soluble CD28-Ig. Put plainly: two-colour FACS on transfected 293 cells. As to the method:
as §1

For experiment [5], the target named is T2, Soluble CD28-Ig. Put plainly: two-colour FACS profile on transfected cells; score of preference for CD28-Ig over CTLA-4-Ig vs WT hB7-1.
The next experiment concerns the target human CD28 receptor (human, UniProt P10747 19-220). As to the kind of experiment: cell-based or functional assay.
Experiment [6] concerns the target T1, Soluble CTLA-4-Ig. Put plainly: FACS of transfected cells, Round 1 clones.

Positions count from the first letter of the chain named.

Results on eight molecules are retold here after patent US20050154189A1 (MAXYGEN, published 2005).

T1 sequence (P16410 36-161): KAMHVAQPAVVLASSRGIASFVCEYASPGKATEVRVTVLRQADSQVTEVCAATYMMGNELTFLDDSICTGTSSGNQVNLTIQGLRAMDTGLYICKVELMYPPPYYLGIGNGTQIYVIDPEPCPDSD

B1: Baboon B7-1 (ligand)
chain: VIHVTKEVKEVATLSCGHNVSVEELAQTRIYWQKEKKMVLTMMSGDMNIWPEYKNRTIFDITNNLSIVILALRPSDEGTYECVVLKYEKDAFKREHLAEVMLSVKADFPTPSITDFEIPPSNIRRIICSTSGGFPEPHLFWLENGEELNAINTTVSQDPGTELYTVSSKLDFNMTTNHSFVCLIKYGHLRVNQTFNWNTPKQEHFPDNLLPSWAITLISVNGIFVICCLTYCFAPRCRERRRNETLRRESVRPV
notes: Wild-type parental gene expressed on transfected 293 cells
In the case of B1, the binding result with Soluble CTLA-4-Ig [1] and in the experiment with Soluble CD28-Ig [2] was “binds” each time.

B2: Rhesus B7-1 (ligand)
chain: B1 chain with H138R, F140S, N152S, G160E, V181M, Y231H
notes: Wild-type parental gene expressed on transfected 293 cells; also called rhesus monkey B7-1
With B2, the binding result in the experiment with Soluble CTLA-4-Ig [3] and in the experiment with Soluble CD28-Ig [4] was “binds” throughout.

B3: Orangutan B7-1 (ligand)
chain: VIHVTKEVKEVATLSCGHNVSVEELAQTRIYWQKEKKMVLTMMSGDMNIWPEYKNRTIFDITNNLSIVILALRPSDEGTYECVVLKYEKDAFKREHLAEVTLSVKADFPTPSISDFEIPTSNIRRMICSTSGGFPEPHLSWLENGEELNAISTTVSQDPETELYAVSSKLDFNMTTNHSFMCLIKYGHLRVNQTFNWNTPKQEHFPDNLLPSWAITLISVNGIFVICCLTYCFAPRCRERRSNERLRRESVRPV
notes: as for B1
For B3, the binding result in the experiment with Soluble CTLA-4-Ig [1] and with Soluble CD28-Ig [2] was “binds” throughout.

B4: Round 2 CD28B4-5* (ligand)
chain: SGITPKSVTKRVKETVMLSCDYNTSTEELTSLRIYWQKDSKMVLAILPGKVQVWPEYKNRTITDMNDNPRIVILALRLSDKGTYTCVVQKPDLKGAYKLEHLASVRLMIRADFPVPSITDIGHPAPNVKRIRCSASGGFPEPRLAWMEDGEELNAVNTTVDQDLDTELYSVSSELDFNVTNNHSIVCLIKYGELSVSQIFPWSKPKQEPPIDQLPFWVIIPVSGALVLTAVVLYCLACRHVARWKRTRRNEETVGTERLSPIYLGSAQSSG
Consider B4, for which the “Binding Score” value with Soluble CD28-Ig [5] worked out at 0.

B5: Round 2 CD28F11-8 (ligand)
chain: ITPKSVTKRVKETVMLSCDYNTSTEELTSLRIYWQKDSKMVLAILPGKVQVWPEYKNRTITDMNDNPRIVILALRLSDSGTYTCVIQKPVLKGAYKLEHLTSVRLMIRADFPVPTINDLGNPSPNIRRLICSTSGGFPRPHLYWLENGEELNATNTTLSQDPETKLYMISSELDFNMTSNLCLVKYGDLTVSQTFYWQESKPTPSANQHLTWTIIIPVSAFGISVIIAVILTCLTCRNAAIRRQRRENEVEMQSCSQSP
B5: the “Binding Score” value with Soluble CD28-Ig [5] worked out at 0.

B6: Round 2 CD28BP-15 (ligand)
chain: ITPKSVTKRVKETVMLSCDYNTSTEELTSLRIYWQKDSKMVLAILPGKVQVWPEYKNRTITDMNDNPRIVILALRPSDSGTYTCVIQKPVLKGAYKLEHLASVRLMIRADFPVPTINDLGNPSPNIRRLICSTSGGFPRPHLYWLENGEELNATNTTVSQDPGTELYMISSELDFNVTNNHSIVCLIKYGELSVSQIFPWSKPKQEPPIDQLPFWVIIPVSGALVLTAVVLYCLACRHVARWKRTRRNEETVGTERLSPIYLGSAQSSG
notes: Full-length clone on transiently or stably transfected 293 cells; The end 303 is the end of the entry as counted; also called R2 CD28BP-15; clone 15
With B6, the “Binding Score” value in the experiment with Soluble CD28-Ig [5] was 2. Also, in the experiment with human CD28 receptor, the “T cell proliferation (3H-thymidine incorporation) of purified human T cells with anti-CD3 mAbs” value is approximately 10 fold.

B7: Round 1 CD28BP-84 (ligand)
chain: GISQVTKSVKEMAALSCDYNISIDELARMRIYWQKDQQMVLSIISGQVEVWPEYKNRTFPDIINNLSLMILALRLSDKGTYTCVVQKNENGSFRREHLTSVTLSIRADSPVPSITDIGHPAPNVKRIRCSASGGFPEPRLAWMEDGEELNAVNTTVDQDLDTELYSVSSELDFNVTNNHSIVCLIKYGELSVSQIFPWSKPKQEPPIDQLPFWVIIPVSGALVLTAVVLYCLACRHVARWKRTRRNEETVGTERLSPIYLGSAQSSG
notes: also called R1clone 84; Clone 84
Turning to B7, the binding result with Soluble CTLA-4-Ig [6] is recorded as “binds”. In addition, in the experiment with Soluble CD28-Ig [5], the “Binding Score” value came out at 1.

B8: Round 1 CD28BP-118 (ligand)
chain: B7 chain with S109F, G134D
notes: also called R1clone 118; Clone 118
Regarding B8, the binding result with Soluble CTLA-4-Ig [6] is on record as “binds”. For the same molecule, the “Binding Score” value with Soluble CD28-Ig [5] was 1.
